For assay [1], the target named is T1, human IL-21R expressed on cells (human, UniProt Q9HBE5 20-538). Nature of the assay: cell-based or functional assay.
The target of assay [2] is T2, human IL-21R fusion protein (human, UniProt Q9HBE5 20-235, biotinylated in the assay of Example 11 (site not stated)).
T2 construct: Soluble fusion protein (Wyeth); The extracellular domain is said to be about residues 20-235; also called soluble IL-21R fusion protein; biotinylated human IL-21R fusion protein
Nature of the assay: phage ELISA on coated IL-21R fusion protein. As to the method:
To establish the specificity of the scFᵥ's for IL-21R, a phage ELISA was performed against the IL-21R fusion protein. Individual TG1 cell colonies from the second selection were transferred to microtiter wells containing 100 μl of -2TYAG medium. M13K07 helper phage ([…]) was added to the exponentially growing TG1 culture, and the samples were incubated for one hour at 37° C. Plates were centrifuged and supernatant was removed, then the remaining pellets were suspended in 100 μl of 2TYAG and incubated overnight at 30° C. with shaking. The next day, plates were centrifuged and phage supernatant was transferred to new microtiter plate wells. Phage was blocked in MPBS prior to ELISA.
Wells of microtiter plates were coated with IL-21R fusion protein or control fusion protein (0.5-2.5 μg/ml) and incubated overnight at 4° C. The next day, fusion protein solution was removed and wells were blocked for 1 hour in MPBS. Wells were washed with PBS, then 50 μl of blocked phage was added. Plates were incubated for 1 hour, then washed 3 times with PBST and 3 times with PBS. Anti-M13-HRP conjugate (Pharmacia, Peapack, N.J.) was added to wells, and the samples were incubated for one hour. Wells were washed 3 times with PBST and 3 times with PBS. […] The color signal was measured by reading absorbance at 450 nm using a microtiter plate reader.
For orientation: ELISA stands for enzyme-linked immunosorbent assay.

For assay [3], the target named is T2, human IL-21R fusion protein. Description: DELFIA competition: inhibition of human IL-21R fusion protein binding to captured IL-21-FLAG. As to the method:
ScFv production was induced by addition of 1 mM IPTG to exponentially growing cultures and incubation overnight at 30° C. Crude scFv-containing periplasmic extracts (Griffiths et al.(1993) EMBO J., 12:725-734) were screened for the ability to inhibit the binding of human IL-21R fusion protein to human IL-21-FLAG tagged protein. Briefly, anti-FLAG antibody was immobilized onto plastic and used to capture FLAG-tagged human IL-21 protein. Binding of human IL-21R fusion protein was detected with a Europium-labelled antibody to the IL-21R fusion protein, and time resolved fluorescence was detected with the DELFIA reagent kit (PerkinElmer, Boston, Mass.).

Assay [4] shares this target. Nature of the assay: epitope competition assay: bio.hIL21R binding to immobilized MUF IgG (competitor), DELFIA. As to the method: The scFv clones 18A5, 19F5 and 18G4 were further tested in an epitope competition assay in order to determine whether they bound the same or a different epitope than MUF. ScFv-containing periplasmic extracts were prepared as described above for the various clones. Final buffer used was 50 mM MOPS, pH 7.4, 0.5 mM EDTA, 0.5 M sorbitol. The scFv-containing crude periplasmic extracts were screened for the ability to inhibit the binding of biotinlyated human IL-21R fusion protein (bio.hIL21R) to MuF IgG protein immobilized on plastic in a 96 well microtitre plate assay. Binding of bio.hIL21R was detected with Europium-labelled streptavidin and TRF detected using the DELFIA reagent kit (PerkinElmer). Positive clones were used in an epiope competition assay described herein.

Assay [5] addresses T1, human IL-21R expressed on cells. Nature of the assay: cell-based or functional assay. This is another data set of the same source.

T2 sequence (Q9HBE5 20-235): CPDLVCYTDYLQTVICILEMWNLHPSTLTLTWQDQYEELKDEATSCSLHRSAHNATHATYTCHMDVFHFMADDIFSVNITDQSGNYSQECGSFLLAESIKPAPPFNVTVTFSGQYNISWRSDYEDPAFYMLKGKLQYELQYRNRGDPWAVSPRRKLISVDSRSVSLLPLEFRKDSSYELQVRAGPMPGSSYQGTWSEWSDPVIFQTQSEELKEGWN
T1 sequence (Q9HBE5 20-538): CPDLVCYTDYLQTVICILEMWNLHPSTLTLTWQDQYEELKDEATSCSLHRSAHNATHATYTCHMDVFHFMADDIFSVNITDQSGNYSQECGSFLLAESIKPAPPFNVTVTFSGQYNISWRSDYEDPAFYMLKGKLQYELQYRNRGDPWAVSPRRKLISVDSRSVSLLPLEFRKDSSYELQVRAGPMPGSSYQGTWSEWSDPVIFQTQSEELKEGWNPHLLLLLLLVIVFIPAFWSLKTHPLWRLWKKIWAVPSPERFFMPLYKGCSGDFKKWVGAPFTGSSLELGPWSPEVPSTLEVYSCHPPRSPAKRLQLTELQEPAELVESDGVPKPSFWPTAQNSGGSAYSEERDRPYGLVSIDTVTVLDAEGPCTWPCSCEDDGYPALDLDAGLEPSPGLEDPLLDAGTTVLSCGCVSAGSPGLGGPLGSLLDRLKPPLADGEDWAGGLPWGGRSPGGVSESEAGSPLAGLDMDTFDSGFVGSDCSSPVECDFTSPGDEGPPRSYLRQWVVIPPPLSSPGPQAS

B1: 19F5 scFv (scFv)
scFv: EVQLVQSGAEVKKPGASVKVSCKASGYAFTDNYIHWVRQAPGQGLEWMGWINPKTGGTNYAQKFQGRVSMTRDTSINTAYMDLSRLTSDDTAVYYCTRSLSPYGGQLLYWGRGTMVTVSSGGGGSGGGGSGGGGSALSSELTQDPAVSVALGQTVRITCQGDSLRRYYASWFQQKPGQAPVLVIFGKNNRPSGIPDRFSASSSGNTASLTITGAQAEDEADYYCNSRDTSINHPVIFGGGTKLTVLG
Take B1: the “IC50 Value (nM) ScFv, hBaf3Mu-1 cell proliferation assay” value (“IC50 Value (nM) ScFv” below) in assay [1] was 91 nM.

B2: MU11 phage clone (scFv)
scFv: EVQLVQSGGGVVQPGRSLRLSCAASGFTFSSYGMHWVRQAPGKGLEWVAVISYDGSNKYYADSVKGRFTISRDNSKNTLYLQMNSLRDEDTAVYYCARHGQYALDIWGQGTMVTVSSGGGGSGGGGSGGGGSDIVMTQSPSTLSASVGDRVTITCRASQGISSWLAWYQQKPGRAPKVLIYKASTLESGVPSRFSGSGSGTDFTLTISSLQPEDFATYYCQQSYSTPWTFGQGTKLEIKRAA
On to B2, for which the binding result in assay [2] is recorded as “binds”.

B3: R18 scFv (scFv)
scFv: QVQLQESGGGLVQPGGSLRLSCAASGFTFSSYAMSWVRQAPGKGLEWVSGISGSGTSTYYADSVKGRFTISRDNSKNTLYLQMNSLRAEDTAVYYCATHISERPRGAFDIWGRGTMVTVSSGGGGSGGGGSGGGGSALSSELTQDPAVSVALGQTVRITCQGDSLRKYHATWYQQKPRQAPVLVVYGKNRRPSGIPDRFSGSSSGNTASLTITGAQAGDEADYYCNSRDTSGLHYVFGAGTKLTVLG
notes: also called hIL21R18; scFv R18 clone
Take B3: in assay [1], the “IC50 Value (nM) ScFv” value was found to be 473 nM. The 50% inhibitory concentration (IC50) in assay [3] came to 770 nM.

B4: 18A5 scFv (scFv)
scFv: QVQLQESGPGLVKTSETLSLTCAVSGYSISSGYYWGWIRQPPGKGLEWIGSISHTGNTYYNPPLKSRVTISVDTSKNQFSLKLSSVTAADTAVYYCARGGGISRPEYWGKGTLVTVSSGGGGSGGGGSGGGGSALSSELTQDPPVSVALGQTVTLTCQGDSLRTYYASWYQQKSGQAPILLLYGKHKRPSGIPDRFSGSTSGDTASLTITGAQAEDEADYYCNSRDSSGNPHVLFGGGTQLTVLS
For the molecule B4, the “IC50 Value (nM) ScFv” value in assay [1] was 213 nM. In assay [4], this molecule showed a 50% inhibitory concentration (IC50) of 114 nM.

B5: MUF scFv (scFv)
scFv: QVQLVQSGAEVKKPGSSVRVSCKASGGTFNIYSVSWVRQAPGQGLEWMGRIIPMRDIANYAQRFQGRVTLTADKSSGTAYMELRGLRSDDTAVYWCATLAGPLDSWGQGTLVTVSSGGGGSGGGGSGGGGSALSSELTQDPAVSVGLGQTVTITCQGGSLRQYYASWYQQKPGQAPVVVIYGKNKRPSGIPDRFSGTTSGNTASLTITGAQAEDEADYYCKSRDSSGNHPLYVFGAGTKLTVLGAAAHHHHHH
Take B5: the “IC50 Value (nM) ScFv” value in assay [1] was found to be 140 nM. Further, in assay [5], the “IC50, inhibition of cell response to IL-21 (hBaf3Mu-1 proliferation)” value was found to be 268 nM.

B6: MUF antibody (human IgG1 lambda) (antibody, V domains shown)
VH: QVQLVQSGAEVKKPGSSVRVSCKASGGTFNIYSVSWVRQAPGQGLEWMGRIIPMRDIANYAQRFQGRVTLTADKSSGTAYMELRGLRSDDTAVYWCATLAGPLDSWGQGTLVTVSS
VL: SSELTQDPAVSVGLGQTVTITCQGGSLRQYYASWYQQKPGQAPVVVIYGKNKRPSGIPDRFSGTTSGNTASLTITGAQAEDEADYYCKSRDSSGNHPLYVFGAGTKLTVLG
notes: also called MUF IgG; MuF IgG protein
Molecule B6 showed an IC50 in assay [4] of 0.4 nM. Moreover, the “IC50, inhibition of cell response to IL-21 (hBaf3Mu-1 proliferation)” value in assay [5] turned out to be 3 nM.

B7: 18G4 scFv (scFv)
scFv: EVQLVQSGAEVKKPGSSVKVSCKASGGTFNIYSVSWVRQAPGQGLEWMGRIIPMRDIANYAQRFQGRVTLTADKSSGTAYMELRSLRSDDTAVYWCATLAGPLDSWGRGTLVTVSSGGGGSGGGGSGGGGSALSSELTQDPAVSVALGQTVRITCQGDSLRTYYASWYQKRPGQAPILVMYGRNKRPSGIPDRFSGSFSGNRASLTITGAQAEDEADYYCKSRAYSGNLVEFGGGTKLTVLG
Turning to B7, the “IC50 Value (nM) ScFv” value in assay [1] stood at 522 nM. The molecule further had a concentration for half-maximal inhibition (IC50) in assay [4] of 1.4 nM.

As usually defined, the IC50 is the concentration at which inhibition is half-maximal. Higher therefore signals a need for much substance.
